Patent US9347942B2, “Ultrasensitive cell based sensors and uses thereof” (CANVAX BIOTECH SL, priority 2010, dated 2016)
FAM = fluorophore of the FRET substrate

How the values were obtained:
[1] = molecular target: T1, human granzyme B (Homo sapiens, UniProt P10144); test: Direct detection of secreted granzyme B with peptide substrates (Example 10); assay type: biochemical; settings: for signal to background: ionomycin 10 uM
T1 construct: expressed in transfected cells; host or cells: supernatant of RBL-2H3 stably transfected with human granzyme B, treated with ionomycin
T1 sequence (P10144 21-247): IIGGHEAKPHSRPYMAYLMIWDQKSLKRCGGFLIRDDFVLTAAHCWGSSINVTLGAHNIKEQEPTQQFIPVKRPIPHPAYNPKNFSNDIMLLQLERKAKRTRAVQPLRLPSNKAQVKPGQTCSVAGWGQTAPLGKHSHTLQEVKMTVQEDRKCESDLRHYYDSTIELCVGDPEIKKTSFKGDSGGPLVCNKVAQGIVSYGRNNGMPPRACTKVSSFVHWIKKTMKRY
Description: Human granzyme B was used as a model enzyme. […] Cleavage of FAM-TAMRA labelled peptide was detected by fluorescence using excitation at 485 nm and emission at 535 nm and labelled peptide at 1 uM final concentration.
For each substrate the exocytosis of 50.000, 25.000, 12.500, 6.250, 3.125, 1560, 780 and 390 cells was analysed. Cells were seeded the night before experiment at the above densities in 96 well plates using 100 uL of complete cell culture medium per well. The day of experiment cells were washed with HBSS buffer and exocytosis was initiated by addition of ionomycin at 10 uM final concentration in HBSS buffer and incubation for 60 minutes at 37 Celsius degrees. Controls of cells treated with HBSS buffer only were included for basal release determination. Five replicas of each cell density for each substrate were seeded. Supernatant from cells were centrifuged at 400 g for 5 minutes and used for fluorescence determination in 96 well plates. Released AMC was measured by excitation at 360 nm and emission at 460 nm in a BMG Labtech microplate fluorimeter in 96 well microplates while released FAM was measured by excitation at 485 nm and emission at 535 nm in the same reader. Microplates were incubated at 37 Celsius degrees on the reader and were kinetically read at 0, 15, 30, 45 and 60 minutes. Control wells with substrate only in HBSS buffer were included to subtract autofluorescence of substrates to both cells treated with ionomycin and to cells treated with HBSS buffer only. An arbitrary signal to background of about two was selected as sensitivity.

[2] = system: RBL-2H3 cells; test: Ionomycin-induced release of granule stored protease reporters from stable cell lines (Example 5); assay type: cell-based, Rat; settings: stable RBL-2H3, 10 uM ionomycin 1 hour, supernatant equivalent to 100.000 cells, AMC substrate
Source text: As either tryptase-like enzymes, chymase-like enzymes, elastase-like enzymes or asp-ase like enzymes are useful for the methods of the present invention we selected human granzyme A (tryptase-like enzyme); human granzyme B (Asp-ase-like enzyme); human chymase (chymase-like enzyme) and human proteinase 3 (elastase-like enzyme) for further examples. Vectors were developed for stable expression of human granzyme A, human granzyme B, human chymase and human proteinase 3 under the control of hCMV-MoMLV5′LTR chimeric promoter. A hygromycin resistance cassette was included in the vector backbone for selection of stable populations of cells. The vector also included an IRES-NGFR cassette cloned downstream of granule stored protease reporter and thus, under the control of hCMV-MoMLV5′LTR promoter for flow cytometry and/or selection by MACS of stable cells expressing either human granzyme A or human granzyme B or human chymase or human proteinase 3. Each vector was individually electroporated using a microporator (Digital Bio Technology, South Korea) into RBL-2H3 and after 48 hours hygromycin at 1500 ug/mL was added to culture for selection. After selection for about 2 weeks cells were analysed by flow cytometry (Guava Technologies, USA) with an antibody against NGFR coupled to FITC. Positive population where magnetically separated by MACS using anti-NGFR-MACS sup.R (Miltenyi Biotec, Germany). Sorted populations were again analysed again by flow cytometry to check the sorting efficiency. Percentage of NGFR positive cells was always higher than 65 percent. Cells were seeded the night before experiment in 24 well microplates at 650.000 cells per well in 800 microliters of complete cell culture medium. Next day cells were washed with HBSS buffer and were treated with 10 uM ionomycin for 1 hour at 37 Celsius degrees in 200 uL of HBSS buffer and after centrifugation at 400 g for 5 minutes supernatants were analysed for activity with specific fluorescent substrates. Controls of cells incubated with HBSS buffer only were included. Fluorescent substrates were: VANR-AMC for granzyme A; PEEI-AMC for human neutrophil elastase; PTSY-AMC for human chymase; VADC-AMC for human proteinase 3 and IEPD-AMC for human granzyme B. Released AMC was measured by excitation at 360 nm and emission at 460 nm in a BMG Labtech microplate fluorimeter in 96 well microplates using 125 microliters of supernatant and 125 microliters of specific substrate at 400 micromol per liter in HBSS buffer. Microplates were incubated at 37 Celsius degrees on the reader and were kinetically read at 0, 15, 30, 45 and 60 minutes. Control wells with substrate only in HBSS buffer were included to subtract autofluorescence of substrates to both cells treated with ionomycin and to cells treated with HBSS buffer only. Autofluorescence of peptide substrates in HBSS buffer was about 3000 while fluorescence of cells treated with HBSS buffer only for 60 minutes at 37 Celsius degrees was about 5000, that is basal release in the absence of exocytosis modulator was about 2000. In contrast, fluorescence of ionomycin-induced release of human granzymes A and B was about 20.000 for a signal to background of 10 when using the supernatant equivalent to 100.000 cells; fluorescence of ionomycin-induced release of human chymase was about 30.000 for a signal to background of 15 when using the supernatant equivalent to 100.000 cells and fluorescence of ionomycin-induced release of human proteinase 3 was about 12.000 for a signal to background of 6 when using the supernatant equivalent to 100.000 cells. Thus, tryptase-like enzymes, chymase-like enzymes, elastase-like enzymes or asp-ase like enzymes can be stably expressed into granules of hemopoyetic cells with professional regulated exocytosis and such granule stored proteases are released by exocytosis modulators to produce sensors with good signal to background ratios using specific AMC-coupled peptide substrates. […]

[3] = system: RBL-2H3 cells; test: Ionomycin-induced release of granzyme B from different species, stable cell lines (Example 6); assay type: cell-based, Rat; settings: 100.000 cells per well, 10 uM ionomycin 1 hour, IEPD-AMC
Source text: This experiment was designed to test if granule stored protease reporters from other species different from human could be used for the methods of the present invention. As an example we selected granzyme B from different species. Vectors were developed for expression of human, rat, horse and chimpanzee granzyme B and RBL-2H3 cells were individually transfected with the plasmids comprising the chimeric promoter of hCMV-MoMLV5′LTR-GranzymeB-IRES-NGFR with hygromycin resistance for stable transfections. Each vector was individually electroporated using a microporator (Digital Bio Technology, South Korea) into RBL-2H3 and after 48 hours hygromycin at 1500 ug/ml_was added to culture for selection. After selection for about 2 weeks cells were analysed by flow cytometry (Guava Technologies, USA) with an antibody against NGFR coupled to FITC. Positive population where magnetically separated by MACS using anti-NGFR-MACS sup.R (Miltenyi Biotec, Germany). Sorted populations were again analysed again by flow cytometry to check the sorting efficiency. Percentage of NGFR positive cells was always higher than 65 percent. Cells were seeded the night before experiment in 96 well microplates at 100.000 cells per well in 100 microliters of medium. Next day cells were washed with BSS buffer and were treated with 10 uM ionomycin for 1 hour at 37 Celsius degrees in 105 uL of HBSS buffer and after centrifugation at 400 g for 5 minutes supernatants were analysed for activity with specific fluorescent substrates. Controls of cells incubated with HBSS buffer only were included. Fluorescent substrate was IEPD-AMC for all granzymes B tested. Released AMC was measured by excitation at 360 nm and emission at 460 nm in a BMG Labtech microplate fluorimeter in 96 well microplates using 105 microliters of supernatant and 145 microliters of specific substrate at 345 micromol per liter in HBSS buffer. Microplates were incubated at 37 Celsius degrees on the reader and were kinetically read at 0, 15, 30, 45 and 60 minutes. Control wells with substrate only in HBSS buffer were included to subtract autofluorescence of substrates to both cells treated with ionomycin and to cells treated with HBSS buffer only.

[4] = molecular target: T2, hIL8 receptor (hIL8RA) (Homo sapiens, UniProt P25024); test: Multiplex assay, Sensor A channel (hIL8RA and human granzyme A) (Example 14); assay type: cell-based; settings: for Signal to background at 30 min: granzyme A substrate 1 uM
T2 construct: the entire human GPCR; mouse immunoglobulin kappa signal peptide (N); expressed in transfected cells
T2 sequence (P25024 3-350 limits assumed): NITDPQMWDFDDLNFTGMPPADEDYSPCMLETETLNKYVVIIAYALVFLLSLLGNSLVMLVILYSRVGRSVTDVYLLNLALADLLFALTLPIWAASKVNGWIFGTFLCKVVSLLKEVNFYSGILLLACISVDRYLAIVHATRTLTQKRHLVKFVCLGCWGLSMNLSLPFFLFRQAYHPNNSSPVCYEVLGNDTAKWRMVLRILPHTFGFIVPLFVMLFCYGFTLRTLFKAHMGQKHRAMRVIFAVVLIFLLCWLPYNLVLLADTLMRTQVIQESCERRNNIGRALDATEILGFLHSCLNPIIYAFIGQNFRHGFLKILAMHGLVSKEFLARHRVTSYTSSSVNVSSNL
Source text: (§1) The principle of multiplex reactions is illustrated in FIG. 5. RBL2H3 cells were stably transfected with a pair of a GPCR as exocytosis modulator and a granzyme as a granule stored reporter as described in example 9. Combinations included were: hIL8 receptor (hIL8RA) and human granzyme A (Sensor A) and CHRM2 and granzyme B expressing cells of example #12 (Sensor B). Human IL8 was used as agonist of hll_8R while carbachol was used as CHRM2 agonist. […] As both substrates uses the same pair of fluorophore (FAM) and quencher (TAMRA) only one substrate could be added to reaction vessel for specific detection at 535 nm after excitation at 485 nm. […] Sensors, agonists and substrates were mixed in a total volume of 20 uL of HBSS in a black walled 384 well microplate and the microplate was incubated at 37 Celsius degrees in a BMG-Labtech microplate fluorimeter and read at 0, 15, 30, 45 and 60 minutes.

[5] = molecular target: T3, CHRM2 (Homo sapiens, UniProt P08172); test: Multiplex assay, Sensor B channel (CHRM2 and granzyme B) (Example 14); assay type: cell-based; settings: Condition 9: Sensor A 12500 + Sensor B 5000 cells, IL8 10 uM, no carbachol, granzyme B substrate 1 uM
T3 construct: the entire human GPCR; mouse immunoglobulin kappa signal peptide (N); expressed in transfected cells
T3 sequence (P08172 2-466): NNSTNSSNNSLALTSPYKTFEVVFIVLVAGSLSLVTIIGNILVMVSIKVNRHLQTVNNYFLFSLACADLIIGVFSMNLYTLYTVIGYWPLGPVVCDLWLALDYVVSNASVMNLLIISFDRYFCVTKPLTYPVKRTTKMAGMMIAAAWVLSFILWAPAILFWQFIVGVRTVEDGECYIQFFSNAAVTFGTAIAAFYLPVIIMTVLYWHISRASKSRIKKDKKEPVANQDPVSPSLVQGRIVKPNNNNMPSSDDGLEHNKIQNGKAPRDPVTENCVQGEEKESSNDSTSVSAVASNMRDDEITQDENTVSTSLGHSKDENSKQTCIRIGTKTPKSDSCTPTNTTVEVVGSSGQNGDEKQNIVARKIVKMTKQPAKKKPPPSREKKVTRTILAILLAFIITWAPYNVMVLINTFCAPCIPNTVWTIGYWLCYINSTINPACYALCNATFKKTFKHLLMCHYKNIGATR
Source text: as §1

[6] = molecular target: T1, human granzyme B; test: Procaspase-3 zymogen activation by secreted granzyme B, DEVD-AMC readout (Example 11); assay type: biochemical
Source text: As a model we selected human granzyme B. A human granzyme B activated-zymogen was developed from human native unmodified procaspase-3 (huCasp3) and from a mutated human procaspase-3 (mut-huCasp3) where the amino acids from 172 to 179 has been changed from […]to […] that is Threonine at 174 has been mutated to Proline because IEPD is a better granzyme B substrate than IETD and serine at 176 has been mutated to valine, glycine at 177 has been mutated to leucine, valine at 178 has been mutated to methionine and aspartic acid at 179 has been mutated to glutamic acid in order to both improve cleavage efficiency by human granzyme B and to reduce autoactivation of procaspase-3. cDNA from both variants of human pro-caspase-3 comprising amino acids from Serine at 29 to Aspartic acid at 192 were cloned into pET43a+ vector from Novagen. After sequencing expression vectors were transformed into BL21 DE3pLys E. coli strain for protein expression. Each protein was cloned with a polyhistidine tag at C-terminal end for purification. Human native procaspase-3 (huCasp3) was induced for only 30 minutes to prevent autoactivation, while mutated procaspase-3 (mut-huCasp3) was induced both for 30 minutes and for 2 hours. DEVD-AMC substrate was used for detection of active caspase-3 with excitation at 360 nm and emission at 460 nm. A supernatant equivalent to 15.000 RBL-2H3 stably transfected with human granzyme B treated with 10 uM ionomycin for 60 minutes was used for zymogen activation. Human granzyme B activity of such supernatant when measured with IEPD-AMC produced a signal to background of 2.6 after incubation for 60 minutes at 37 Celsius degrees using a supernatant equivalent to 25.000 cells. Background of fluorescence of DEVD-AMC substrate was 2775 and was subtracted from both granzyme B treated caspase-3 and non-granzyme B treated caspase-3 (caspase-3 only) used as control and all samples were tested by triplicate.

In the case of “FAM-Ser-Ile-Glu-Pro-Asp-Ser-Gly-Ser-TAMRA ({FAM}-SIEPDSGS-{TAMRA}) [FAM-TAMRA peptide, custom designed FRET based granzyme B substrate]”, the signal to background ([1]; 390 cells) is reported as < 2, the signal to background ([1]; 780 cells) is reported as 3 and the “times more sensitive for detection of granzyme B than IEPD-AMC peptide” value ([1]; sensitivity taken as 780 cells) is reported as “more than 30 times”.

“Human granzyme B: Asp-ase-like serine protease (GZMB, NM_004131) used as granule stored reporter” was tested, and the “fluorescence of ionomycin-induced release” value [2] was “about 20.000”, the signal to background [2] was 10 and the “Fluorescence of supernatant from cells treated with ionomycin” value [3] was 20,000. The signal to background [3] was 10.

With IL8: Human IL8 used as agonist of hIL8R the “Signal to background at 30 min” value ([4]; Condition 2: 12500 cells Sensor A, IL8 10 uM) was 16, the “Signal to background at 30 min” value ([4]; Condition 5: Sensor A 12500 + Sensor B 5000 cells, IL8 10 uM + carbachol 10 uM) was 12.5 and the “maximal granzyme A activity secreted by sensor A upon IL8, relative to granzyme B activity secreted by sensor B upon carbachol” value ([4]; first experiment, data not shown) was “about 40%”. The “Signal to background at 30 min” value [5] was 0.95.

B1: Native (unmodified) huCasp-3: human native unmodified procaspase-3 zymogen expressed in E. coli with polyhistidine tag (protein, UniProt P42574 1-277, looked up)
pro-form: MENTENSVDSKSIKNLEPKIIHGSESMDSGISLDNSYKMDYPEMGLCIIINNKNFHKSTGMTSRSGTDVDAANLRETFRNLKYEVRNKNDLTREEIVELMRDVSKEDHSKRSSFVCVLLSHGEEGIIFGTNGPVDLKKITNFFRGDRCRSLTGKPKLFIIQACRGTELDCGIETDSGVDDDMACHKIPVEADFLYAYSTAPGYYSWRNSKDGSWFIQSLCAMLKQYADKLEFMHILTRVNRKVATEFESFSFDATFHAKKQIPCIVSMLTKELYFYH
modifications: pro-form polyhistidine tag
notes: human native unmodified procaspase-3 zymogen expressed in E. coli with polyhistidine tag
With B1 the “times more sensitive than direct detection of secreted granzyme B with IEPD-AMC” value ([6]; 15.000 cells versus 25.000 cells) was “about 1.7 times”, the “Fluorescence of Caspase-3 only” value ([6]; no granzyme B, DEVD-AMC, background 2775 subtracted) was 15775 and the “signal to background (S/B)” value ([6]; supernatant equivalent to 15.000 cells, DEVD-AMC) was 2.8. The “Fluorescence of caspase-3 treated with granzyme B” value ([6]; supernatant equivalent to 15.000 ionomycin treated cells, DEVD-AMC, background 2775 subtracted) was 43548.

B2: Rat granzyme B: Granzyme B of rat (NM_138517) used as granule stored reporter (protein, UniProt P18291 21-248, looked up)
Granzyme B: IIGGHEAKPHSRPYMAYLQIMDEYSGSKKCGGFLIREDFVLTAAHCSGSKINVTLGAHNIKEQEKMQQIIPVVKIIPHPAYNSKTISNDIMLLKLKSKAKRSSAVKPLNLPRRNVKVKPGDVCYVAGWGKLGPMGKYSDTLQEVELTVQEDQKCESYLKNYFDKANEICAGDPKIKRASFRGDSGGPLVCKKVAAGIVSYGQNDGSTPRAFTKVSTFLSWIKKTMKKS
For B2, the “Fluorescence of supernatant from cells treated with ionomycin” value [3] was 22,000 and the signal to background [3] was 11.
